Bridge positions count the residues as written; N and C are the ends. Ends that are not written are not given here. DVT = divinyltriazine staple linking the two cysteines
Molecular target: HumRadA22
Experiment: fluorescence polarisation; competition: displacement of a fluorescently-labelled BRC4 repeat from HumRadA22; KD calculated from IC50; single titrations with three technical replicates at each point; mock (linear) samples with 500 uM TCEP
Conditions: both partners purified

VNSSAFSGFCTASGKKLNVSCEALQKAVKLFSDIENIS (linker 10-21 via DVT (inferred); also: His8 tag in name not shown in chain) [GB1-SP7-His8, stapled with DVT]
Kd: 149 nM

— paper PMC10699557, “A recombinant approach for stapled peptide discovery yields inhibitors of the RAD51 recombinase†” (Chemical Science, 2023)
